Experimental data from publication PMC11869522, “Competitive displacement of lipoprotein lipase from heparan sulfate is orchestrated by a disordered acidic cluster in GPIHBP1” (Journal of Lipid Research, 2025).

Columns and labels:
bLPL = assay: Protein stability by differential scanning fluorimetry (nano-DSF, turbidity); design: species or system bovine; settings: 10 μM bLPL with 15 μM GPIHBP1 variant; 10 mM HEPES, 150 mM NaCl pH 7.4; 1°C/min, 15−95°C; back-reflection turbidity; triplicates
Experimental: The thermostability of bLPL in the presence or absence of GPIHBP1 was measured by differential scanning fluorometry (nano-DSF) with a Prometheus Panta (Nanotemper Technologies) using a previously published method ([22]). In brief; 10 μM bLPL alone or in the presence of 15 μM GPIHBP1^1–131, 15 μM GPIHBP1^Cluster1-neutral, or 15 μM GPIHBP1^Cluster2-neutra1 were prepared in 10 mM HEPES, 150 mM NaCl (pH 7.4) and heated in capillaries with a ramping temperature of 1°C/min from 15−95°C. Turbidity was measured by assessing back-reflection and was used as a surrogate marker for thermal unfolding ([20]). All samples were measured in triplicates.
Next, we probed if recombinant GPIHBP1^1–131 with defined neutralizations of charge-clusters 1 or 2 had distinct impacts on their ability to protect bLPL from ANGPTL4-mediated inactivation. […]
Fig. 4 GPIHBP1 clusters 1 and 2 have distinct impacts on LPL stability and inactivation by ANGPTL4. […] LPL activity was measured by the release of free fatty acids from Intralipid using the NEFA 2 assay. […] B: Thermostability of 10 μM bLPL in the presence of 15 μM of the different GPIHBP1 charge variants using Tturbidity measured by Prometheus Panta™ as a surrogate marker for unfolding ([20]).

human LPL = assay: Native PAGE binding to human LPL; settings: 4 µM LPL with 18 µM GPIHBP1, 30 min on ice; Coomassie staining
Experimental: Distinct impacts of disordered acidic clusters in GPIHBP1
To confirm interactions between puri fi ed human GPIHBP11–131, G P IH B P 1 Cluster1-neutral, or GPIHBP1 Cluster2-neutral with human, mouse, and bovine LPL, these protein pairs were incubated for 30 min on ice (4 µM LPL with 18 µM GPIHBP1) before they were analyzed by native PAGE. As th ese concentrations were well above t he K D of 0.2 nM for the wildtype LPL•GPIHBP1 interaction, LPL is saturated with GPIHBP1 in these experiments (1). […]
spect r a for the purified GPIHBP1 variants wer e r ecor ded at 25°C in Helman cuvettes (path- length of 1 mm) with a scan rate of 50 nm/ min c ove r i ng the range of 190- 250 nm, averaging three scans for each protein. Spectra for the pr ote i ns were compared after converting to molar ellipticity using the following equation, […] where, Mw is the molecular weight of the protein, c is the protein concentration in g/l, l is the pat h-length of the cuvette, Nr number of amino acid residues in the protein.
Figure S1 : Binding of GPIHBP1 charge mutants to LPL as assessed by Native PAGE. The electrophoretic mobility of GPIHBP1 variants alone or in presence of purified human LPL ( A), b ovine LPL (B), and murine LPL (C) was assessed by native PAGE followed by Coomassie blue staining. […]

Molecule | Tturbidity (thermal unfolding and aggregation of bLPL) (bLPL) | binding to hLPL as judged by native PAGE (human LPL)
GPIHBP1^Cluster1-neutral: GPIHBP1 mutant with all Glu/Asp replaced by Gln/Asn at residues 1–17 (protein, Tyr18 sulfation present in less than 40%; one bi-antennary N-linked glycosylation; left off: uPAR domain III, N-terminal, cleaved) QTQQQQQQQNQNHGPNNYDEEDEDEVEEEETNRLPGGGSRVLLRCYTCKSLPRDERCNLTQNCSHGQTCTTLIAHGNTESGLLTTHSTWCTDSCQPITKTVEGTQVTMTCCQSSLCNVPPWQSSRVQDPTG | 50.4 ± 0.2 °C | bound
GPIHBP1^Cluster2-neutral: GPIHBP1 mutant with all Glu/Asp replaced by Gln/Asn at residues 19–30 (protein, Tyr18 sulfation absent; one bi-antennary N-linked glycosylation; left off: uPAR domain III, N-terminal, cleaved) QTQQEEEEEDEDHGPDDYNQQNQNQVQQQQTNRLPGGGSRVLLRCYTCKSLPRDERCNLTQNCSHGQTCTTLIAHGNTESGLLTTHSTWCTDSCQPITKTVEGTQVTMTCCQSSLCNVPPWQSSRVQDPTG | 48.8 ± 0.1 °C | bound
